The target in data set [1] is Akt (over-expressed or present in transfected cells; isoform and tag not stated). The experiment in a line: cell-based or functional assay.
For another data set, the system named is T1, TRB-2.
T1 sequence: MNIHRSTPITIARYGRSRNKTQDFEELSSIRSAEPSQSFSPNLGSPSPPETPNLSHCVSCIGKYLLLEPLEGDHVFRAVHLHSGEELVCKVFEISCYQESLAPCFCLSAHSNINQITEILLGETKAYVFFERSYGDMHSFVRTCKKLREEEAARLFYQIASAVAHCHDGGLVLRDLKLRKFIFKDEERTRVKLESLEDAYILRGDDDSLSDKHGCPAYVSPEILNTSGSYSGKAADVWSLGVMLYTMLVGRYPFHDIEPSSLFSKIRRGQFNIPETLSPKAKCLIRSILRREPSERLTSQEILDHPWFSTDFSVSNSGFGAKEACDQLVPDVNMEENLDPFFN

Data set [2] has as its target GAL4 ΔPH (amino acids 150-480) Akt construct (yeast) (UniProt P04386). The data set can be described thus: cell-based or functional assay.
For data set [3], the system named is TRB-3 (wild-type, recombinant; tag and species not stated).

UniProt P04386, sequence (P04386 1-147, stated change not applied): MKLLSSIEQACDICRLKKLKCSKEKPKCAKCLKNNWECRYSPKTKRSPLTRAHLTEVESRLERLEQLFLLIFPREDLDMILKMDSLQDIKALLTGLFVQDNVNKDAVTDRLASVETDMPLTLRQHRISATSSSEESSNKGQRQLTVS

Take “TRB-3 (wild-type, recombinant; tag and species not stated)”: the forkhead (Foxo1) activity on an IGFBP1 reporter in HEK293 cells in data set [1] was determined as 3 fold. Consider “Akt (over-expressed or present in transfected cells; isoform and tag not stated)”, for which the “phosphorylation of Akt” value with TRB-2 is “TRB-2 was similarly effective at blocking Akt phosphorylation”. For “TRB-3-VP16 (from UniProt P06492 411-490)”, the GAL4 luciferase reporter activity, mammalian two hybrid assay in HEK293 cells, relative to control VP16 expression vector in data set [2] amounted to 5 fold. Regarding HA-tagged Akt1, in data set [3], the “Akt activity, in vitro kinase assays with a consensus Akt peptide substrate” value was “Over-expression of TRB-3 reduced Akt activity”.

These data come from patent US7220539.
